Results taken from article PMC9908967 (Nature Communications, 2023).

B1: 2554_01_D11 Fab (Fab, V domains shown)
VH: QVQLVQSGAEVKKPGSSVKVSCKASGGTFSSYAISWVRQAPGQGLEWMGGIIPIFGTANYAQKFQGRVTITADESTSTAYMELRSLRSDDTAVYYCARDNLGYCSGGSCYSDYYYYYMDVWGQGTLVTVSS
VL: NFMLTQPRSVSESPGKTVTISCTRSSGSIGSDYVHWYQQRPGSSPTTVIYEDNQRPSGVPDRFSGSIDSSSNSASLTISGLKTEDEADYYCQSYDRSNHEVVFGGGTKLTVL
notes: source: Expi293 cells, transient, purified (anti-CH1 resin)
B2: 2554_01_D11 IgG (antibody, V domains shown)
VH: B1 VH
VL: B1 VL
notes: also called IgG 2554_01_D11; copies: 2 + 2
B3: 2555_01_A01 Fab (Fab, V domains shown)
VH: B1 VH
VL: SYELTQPPSVSVAPGRTATITCEGDNIGQQIVHWYQQKPGQAPVAVISSDSDRPSGIPERFSGSNSGNTATLTISRVEAGDEADYYCQVWDSGSDHVVFGGGTKVTVL
notes: as for B1

What was measured:
[1] = target: T1, α-bungarotoxin (Bungarus multicinctus, UniProt P60615); test: SPR; conditions: both partners purified
T1 construct: source: bought: Latoxan SAS (L8115)

[2] = target: α-elapitoxin (Dendroaspis polylepis, UniProt P01396); test: SPR; BIAcore T100; […]; 10 mM HEPES, 150 mM NaCl, 3 mM EDTA, 0.05% P20, pH 7.4; 40 µL/min; 1:1 Langmuir model, global fit; conditions: both partners purified
[3] = target: α-cobratoxin (Naja kaouthia (monocled cobra), UniProt P01391); test: as above; conditions: both partners purified
[4] = target: T2, long neurotoxin 2 from N. melanoleuca (Naja melanoleuca, UniProt P01388); test: native MS; conditions: one partner purified
T2 construct: source: in SEC fractions of N. melanoleuca whole venom (Latoxan L1318)

[5] = target: T3, long neurotoxin 2 from O. hannah (Ophiophagus hannah, UniProt A8N285); test: native MS; conditions: one partner purified
T3 construct: source: in SEC fractions of O. hannah whole venom (Latoxan L1357)

[6] = target: long neurotoxin 4 from N. naja (Naja naja, UniProt P25672); test: native MS; conditions: one partner purified
[7] = target: T4, long neurotoxin from N. melanoleuca (Naja melanoleuca, UniProt P0DQQ2); test: native MS; conditions: one partner purified
T4 construct: source: in SEC fractions of N. melanoleuca whole venom (Latoxan L1318)

Binder | binding result [1] | Kd [2] [nM] | koff [2] [s⁻¹] | Kd [3] [nM] | koff [3] [s⁻¹] | binding result [4] | binding result [5] | binding result [6] | binding result [7]
B1 | binds | 1.69 | 0.000177 | 1.78 | 0.000229 |  |  |  | 
B2 |  |  |  |  |  | binds | binds | binds | binds
B3 |  | 1.81 | 0.000181 | 8.41 | 0.0017 |  |  |  | 
